Results from patent US20250034601A1 (PURDUE RESEARCH FOUNDATION, published 2025).

B1: nEYFP-PhBSα (PhBSα tagged at its N-terminus with the N-terminal half of EYFP) (other)
chain: MEKQTQARFLEPWRDLKGKVVMVTGASSGIGLDLCLDLAKAGCKIIAAARRVDRLKSLCNQINAAADDDDDNNRAVAVELDVSANGDAIEAAVKEAWGAFGRIDALVNNAGVRGTVHSPLELTEEECHNTFRTNLTGTWLVSKYVCKFMRDAKQGGSVINISSIAGLNRGQLPGGLAYVSSKGAVNMVTKVMALELGVDKIRVNSISPGLFKSEITQGLIQKEWLNNVAMRTIPLRTHGNSADPALTSVVRYLIHDSSEYVSGNLFIVDAGATLPGVPIFSSL
notes: BiFC construct, transiently expressed in Nicotiana benthamiana leaves; not shown: N-terminal half of enhanced yellow fluorescent protein (nEYFP) of plasmid pCNHP-nEYFP-C
B2: MBP-tagged AtBSβ (beta subunit of Arabidopsis thaliana benzaldehyde synthase) (enzyme, not shown: large carriers)
chain: MENPAKRVLMTSNGDEVSRNIAFHLAKHGCKLVMMGNEGSLRSIVDKIRDSIEGAFPADVIALDMESDSEVAFHAAVQKAWELSGHFDAFLNSYTYQGKVQDILQVSQDEFHRITKINLTAPWFLLKAVATRMKDHGSGGSIVFMATIASGERALYPGADAYASTSAAIHQLVRASAMSLGKHKIRVNMISRGLHLDDEYTASVGRDRAQKLVKDAAPLGQWLNPDTDLYSTVIYLISDGSRFMTGTTVLVDGAQSLTRPRLKSYM
notes: Purified recombinant subunit from E. coli; CDS amplified from flower cDNA (gene AT3G01980)
B3: MBP-tagged PhBSβ (beta subunit of Petunia hybrida benzaldehyde synthase) (enzyme, not shown: large carriers)
chain: MENSGKKVLLTSNGDDICNNIAYHLAQRGCQLVLMGNESQLKSVAEMIKQSLGGSAAVEVVGLDMEEDREAAFEEAVDKAWKIFGKLDALVNCYSYEGKMQDPLQLIEEEFKKIVKINFMAGWYLMKCISKKMRDDKSGGSIVFLTSIIGAERGIYQGAAAYGSCLGGIQQLVRLAAIELGKHQIRVNGISRGLHLQDEYPKAVGLERAEKMTKEAAPLNRWLDVKKDLASTVIYLISDDSRYMTGTSIFVDGAQSLVRPRMRSYM
notes: Purified recombinant subunit from E. coli (pMAL-c5X, amylose resin); also called PtBSβ
B4: MBP-PhBSα (maltose binding protein-tagged alpha subunit of Petunia hybrida benzaldehyde synthase) (enzyme, not shown: large carriers)
chain: B1 chain
notes: Coding region amplified from petunia petal cDNA, expressed in E. coli from pMAL-c5X, purified on amylose resin; also called MBP-tagged α-subunit; MBP-PbBSα

Key:
[1] = biological target: T1, cEYFP-PhBSβ (PhBSβ tagged at its N-terminus with the C-terminal half of EYFP) (Petunia hybrida); assay: bimolecular fluorescence complementation (BiFC) in Nicotiana benthamiana leaves, confocal microscopy
T1 construct: BiFC construct, transiently expressed in Nicotiana benthamiana leaves; not shown: C-terminal half of enhanced yellow fluorescent protein (cEYFP) of plasmid pCNHP-cYFP-C
T1 chain: B3 chain

[2] = biological target: the molecule itself; assay: size exclusion chromatography (Superdex 200 Increase 10/300 GL), about 1 mg/mL; self-association
Procedure: (§1) 500 μL purified protein (˜ 500 μg) were loaded onto a Superdex 200 Increase 10/300 GL size exclusion column and eluted with PBS. The column was calibrated with the following markers: bovine thyroglobulin (670 kDa), bovine gamma globulin (158 kDa), chicken ovalbumin (44 kDa), horse myoglobulin (17 kDa), and vitamin B-12 (1.4 kDa).

[3] = biological target: B4; assay: size exclusion chromatography (Superdex 200 Increase 10/300 GL), about 1 mg/mL
Procedure: as §1

Question: Does B1 bind [1]?
Answer: binds

Question: Does B2 bind [2]?
Answer: binds

Question: Does B2 bind [3]?
Answer: binds

Question: Does B3 bind [2]?
Answer: binds

Question: Does B4 bind [2]?
Answer: binds
